The target of experiment [1] is monomeric alpha-synuclein, P37840. Briefly: SPR, captured mAb. The note with it: remark: other sources report otherwise. A general note: Surface plasmon resonance follows binding to a sensor surface in real time, without labels.
Experiment [2] has as its target alpha-synuclein fibrils, P37840. The experiment is described as follows: SPR, captured mAb. To be noted: remark: other sources report otherwise.

In general, Kd refers to the constant that tells how readily two partners part at equilibrium. A high value points to lower affinity. The term koff denotes the first-order rate constant of dissociation. Low values mean slow dissociation, high ones fast dissociation. The kon is the rate constant with which the complex forms.

B1: ACI-7067-1108H1-Ab1 (antibody, V domains shown)
VH: EVKLVESGGGLVQPGGSMKLSCTASGFTFSDAWMNWVRQSPEKGLEWVAEIRNKAHNHATNYAESVKGRFTISGDDSKSSVYLQMNNLRAEDTGIYYCTIYSFWGQGTLVTVSA
VL: SIVMTQTPKFLLVSAGDRVTITCKASQSVTNYVAWYHQKPGQSPKLLIYSASNRYSGVPDRFTGSGYGTDFTFTINTVQTEDLAVYFCQQDYRIPYTFGGGTKLEIK
In experiment [1], B1 showed a Kd of 4.4 nM, a koff of 0.000565 s⁻¹ and a kon of 131000 M⁻¹ s⁻¹. In experiment [2], this molecule returned an equilibrium dissociation constant (Kd) of 14.3 nM, a dissociation rate constant (koff) of 0.00118 s⁻¹ and a kon of 271000 M⁻¹ s⁻¹.

B2: ACI-7088-4305H7-Ab1 (antibody, V domains shown)
VH: EVQLQQSGAELVRPGASVKLSCTASGFNIKDDYMHWVKQRPEQGLEWIGWIDPENGDTEYASKFQGKATMIADTSSNTAYLQLSSLTSEDTAVYYCKTWGTTQALFPYWGQGTLVTVSS
VL: DIVMTQSQKFMSTSVGDRVSITCKASQNVGTAVGWYQQKAGQSPKLLIHSASNRYTGVPDRFTGSGSGTDFTLTINNMQSEDLADYFCQQYRSYPLTFGAGTKLELK
In experiment [1], B2 returned a Kd of 3.4 nM, a koff of 0.0924 s⁻¹ and a kon of 2.73e+07 M⁻¹ s⁻¹. Also, in experiment [2], the Kd amounted to 8.4 nM, the off-rate (koff) was found to be 0.000203 s⁻¹ and the on-rate (kon) was found to be 24200 M⁻¹ s⁻¹.

B3: ACI-7088-4303H6-Ab1 (antibody, V domains shown)
VH: EVQLQQSGAELVRPGASVKLSCTASGFNIQDDYMHWVKQRPEQGLEWIGWIDPENGDTEYASKFQGKATLTADTSSNTAYLQLSRLTSEDTAVYYCTTAGSGVQLFDYWGQGTTLTVSA
VL: DILMTQSQKFMSTSVGDRVSVTCKASQNVGTNVAWYQQKPGQSPKPLISSASSRYSGVPDRFTGSGSGTDFTLTISNVQSEDLADYFCQQYNRYPLTFGAGTKLELK
In experiment [1], B3 displayed a Kd of 195 nM, a dissociation rate constant (koff) of 0.0067 s⁻¹ and an association rate constant (kon) of 34400 M⁻¹ s⁻¹. Besides, in experiment [2], the Kd stood at 43.7 nM, the koff was 0.000636 s⁻¹ and the on-rate constant (kon) is 14600 M⁻¹ s⁻¹.

B4: ACI-7089-4409F1-Ab1 (antibody, V domains shown)
VH: DVQLQESGPGLVKPSQSLSLTCSVTGYSITRGYYWNWIRQFPGNKLEWMGYISYDGSNNYNPSLRNRISITRDTSKNQFFLKLKSVTTEDTATYFCARGDSNWGQGTTLTVSA
VL: not shown
As to B4, in experiment [1], the Kd was found to be 6.4 nM, the koff came to 0.000992 s⁻¹ and the kon was found to be 154000 M⁻¹ s⁻¹. Moreover, in experiment [2], the Kd came to 8.8 nM, the dissociation rate constant (koff) is 0.00587 s⁻¹ and the on-rate constant (kon) amounted to 667000 M⁻¹ s⁻¹.

B5: ACI-7089-4418F6-Ab1 (antibody, V domains shown)
VH: QVQLQQSGAELARPGASVKVSCKASGYTFTSSGISWLKHRTGQGLEWIGDIYPRSGNTYYNEKFKDKATLTADKSSSTAYMELRSLTSEDSAVYFCSSGNYWGQGTTLTVSS
VL: DIVITQDDLSNPVTSGESVSISCRSSKSLLYKDGKTYLNWFLQRPGQSPQLLIYLMSTRASGVSDRFSGSGSGTDFTLEISRVKAEDVGVYYCQQLLEYPLTFGAGTKLELK
Take B5: in experiment [1], the Kd is 0.1 nM, the off-rate (koff) was determined as 9.25e-06 s⁻¹ and the on-rate (kon) was 81800 M⁻¹ s⁻¹. In experiment [2], this molecule displayed a Kd of 0.04 nM, a koff of 1.14e-05 s⁻¹ and a kon of 272000 M⁻¹ s⁻¹.

B6: ACI-8033-19A2-Ab1 (antibody, V domains shown)
VH: EVQLVESGGGLVQPKGSLKLSCAASGFSFNTYAMNWVRQAPGKGLEWVARIRSKSNNYATYYVDSVKDRFTISRDDSESMLYLQMNNLKTEDTALYYCVSESAYWGQGTLVTVSA
VL: DVVMTQTPLSLPVSLGDQASISCRSSQSLVHSNGNTYLYWYLQKPGQSPKLLIYKVSNRLSGVPDRFSGSGSGTDFTLKISRVEAEDLGVYFCSQSTHVPFTFGSGTKLEIK
As for B6, in experiment [1], the Kd turned out to be 6.2 nM, the koff is 0.0828 s⁻¹ and the kon came to 1.33e+07 M⁻¹ s⁻¹. Besides, in experiment [2], the Kd is 6.7 nM, the koff was 0.000119 s⁻¹ and the on-rate constant (kon) stood at 17700 M⁻¹ s⁻¹.

The record behind these values is patent US20250340623A1.
